Test results: paper PMC11009657 (Proceedings of the National Academy of Sciences of the …, 2024)

How the values were obtained:
[1] = biological target: tau extracted from Alzheimer brain samples (human (endogenous in Alzheimer brain)); test: sarkosyl extraction and Western blot
ThT fluorescence + TEM = biological target: the molecule itself; test: ThT fluorescence + TEM

Sequence of tau extracted from Alzheimer brain samples (natural protein) (P10636 2-758): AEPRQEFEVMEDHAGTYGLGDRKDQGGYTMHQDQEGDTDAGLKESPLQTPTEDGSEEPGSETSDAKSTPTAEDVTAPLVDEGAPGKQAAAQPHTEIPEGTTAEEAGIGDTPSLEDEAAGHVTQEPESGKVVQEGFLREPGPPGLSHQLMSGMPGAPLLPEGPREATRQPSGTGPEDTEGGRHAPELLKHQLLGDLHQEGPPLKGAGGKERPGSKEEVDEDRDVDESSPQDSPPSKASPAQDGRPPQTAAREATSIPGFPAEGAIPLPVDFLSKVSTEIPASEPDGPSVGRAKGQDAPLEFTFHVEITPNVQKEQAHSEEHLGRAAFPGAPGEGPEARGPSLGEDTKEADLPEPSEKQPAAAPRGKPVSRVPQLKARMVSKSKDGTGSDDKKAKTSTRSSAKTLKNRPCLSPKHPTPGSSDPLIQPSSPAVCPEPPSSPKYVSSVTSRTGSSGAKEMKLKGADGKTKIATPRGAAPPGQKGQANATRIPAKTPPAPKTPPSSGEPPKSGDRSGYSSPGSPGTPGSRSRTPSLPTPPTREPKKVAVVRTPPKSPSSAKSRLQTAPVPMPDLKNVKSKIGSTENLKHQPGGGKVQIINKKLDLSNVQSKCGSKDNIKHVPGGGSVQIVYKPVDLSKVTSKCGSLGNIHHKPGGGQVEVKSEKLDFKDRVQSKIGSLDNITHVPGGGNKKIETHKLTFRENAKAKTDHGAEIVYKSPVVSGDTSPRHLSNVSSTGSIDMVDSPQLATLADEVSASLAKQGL

| Molecule | stoichiometry N [1] | binding result (ThT fluorescence + TEM) |
| --- | --- | --- |
| tau extracted from Alzheimer brain samples (natural protein) | 6 | – |
| DNIKHVPGGGSVQIVYKPV [jR2R3] | – | binds |
